Measured values taken from patent publication US20070036811A1 (KRAEFTENS BEKAEMPELSE, published 2007).

Target: HLA-A2 (human)
Assay: assembly assay, T2 cells, [35S]-labelled class I MHC, immunoprecipitation and IEF

Row | Binder | C50 (peptide concentration for half maximal binding)
1 | RLQEERTCKV (Synthetic peptide bought from Research Genetics, >80% purity) [ML-IAP245 (RLQEERTCKV)] | 1 µM
2 | GMGSEELRL (Synthetic peptide bought from Research Genetics, >80% purity) [ML-IAP83 (GMGSEELRL)] | 30 µM
3 | QLCPICRAPV (Synthetic peptide bought from Research Genetics, >80% purity) [ML-IAP280 (QLCPICRAPV)] | 20 µM
4 | RLASFYDWPL (Synthetic peptide bought from Research Genetics, >80% purity) [ML-IAP90 (RLASFYDWPL)] | 0.2 µM
5 | LLRSKGRDFV (Synthetic peptide bought from Research Genetics, >80% purity) [ML-IAP154 (LLRSKGRDFV)] | 10 µM
6 | VLEPPGARDV (Synthetic peptide bought from Research Genetics, >80% purity) [ML-IAP230 (VLEPPGARDV)] | > 100 µM
7 | PLTAEVPPEL (Synthetic peptide bought from Research Genetics, >80% purity) [ML-IAP98 (PLTAEVPPEL)] | > 100 µM
8 | SLGSPVLGL (Synthetic peptide bought from Research Genetics, >80% purity) [ML-IAP34 (SLGSPVLGL)] | 1 µM
9 | QILGQLRPL (Synthetic peptide bought from Research Genetics, >80% purity) [ML-IAP54 (QILGQLRPL)] | 1 µM
10 | LTAEVPPEL (Synthetic peptide bought from Research Genetics, >80% purity) [ML-IAP99 (LTAEVPPEL)] | 0.9 µM
